Legend:
[1] = molecular target: T1, MsGyrB47 (D348A) (M. smegmatis, UniProt A0QNE0 1-427, D348A); assay: cell-based or functional assay
T1 sequence: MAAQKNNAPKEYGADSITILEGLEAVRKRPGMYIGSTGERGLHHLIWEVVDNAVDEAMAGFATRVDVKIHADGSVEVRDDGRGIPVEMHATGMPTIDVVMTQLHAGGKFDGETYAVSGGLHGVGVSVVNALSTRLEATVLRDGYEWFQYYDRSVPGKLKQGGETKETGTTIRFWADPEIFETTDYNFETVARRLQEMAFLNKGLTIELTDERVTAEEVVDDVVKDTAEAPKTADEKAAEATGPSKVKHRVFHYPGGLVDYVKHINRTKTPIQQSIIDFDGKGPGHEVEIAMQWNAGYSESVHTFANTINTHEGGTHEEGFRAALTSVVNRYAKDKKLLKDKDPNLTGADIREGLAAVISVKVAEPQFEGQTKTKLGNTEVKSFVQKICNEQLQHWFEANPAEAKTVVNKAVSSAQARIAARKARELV

[2] = molecular target: the molecule itself; assay: crystal structure

Binder | stimulation of the ATPase activity by MsMfpA, compared with wild-type MsGyrB47 [1] | stoichiometry N [2]
Mycobacterium smegmatis MfpA (natural protein, M. smegmatis) MRIGANGDETVWADEEFAGRDFRDEDLSRIRTERVVFTECDFSGVDLSESEHHGSAFRNCTFRRSTIWHSTFTNCSLLGSVFTECRIRPVTFVECDFTLAVLGGCDLRAVDLSDCRLREVSLVGADLRKAVLRRADLTGSRVQDARLEEADLRGTRVDPTFWTTAKVRGAKIDIEQALAYAAAHGLAVHGG | ~2 fold decrease | –
MsGyrB47, the ATPase (N-terminal) domain of M. smegmatis GyrB (domain or fragment) MAAQKNNAPKEYGADSITILEGLEAVRKRPGMYIGSTGERGLHHLIWEVVDNAVDEAMAGFATRVDVKIHADGSVEVRDDGRGIPVEMHATGMPTIDVVMTQLHAGGKFDGETYAVSGGLHGVGVSVVNALSTRLEATVLRDGYEWFQYYDRSVPGKLKQGGETKETGTTIRFWADPEIFETTDYNFETVARRLQEMAFLNKGLTIELTDERVTAEEVVDDVVKDTAEAPKTADEKAAEATGPSKVKHRVFHYPGGLVDYVKHINRTKTPIQQSIIDFDGKGPGHEVEIAMQWNAGYSESVHTFANTINTHEGGTHEEGFRAALTSVVNRYAKDKKLLKDKDPNLTGDDIREGLAAVISVKVAEPQFEGQTKTKLGNTEVKSFVQKICNEQLQHWFEANPAEAKTVVNKAVSSAQARIAARKARELV | – | 2

Source: PMC7980463 (Proceedings of the National Academy of Sciences of the …, 2021)
